Results taken from patent publication US20150322165A1 (SAMSUNG ELECTRONICS, published 2015).

How the values were obtained:
[1] = target: T1, human c-Met/Fc fusion protein (R&D Systems) (human, UniProt P08581 25-932); assay: ELISA, hybridoma culture on plate-bound human c-Met/Fc fusion protein
T1 construct: Bought reagent, coated on ELISA plates; also called human c-Met/Fc protein; not shown: Fc part of the bought fusion; not described
Description: The hybridoma cell culture obtained in Reference Example 1.1.2 was added in an amount of 50 μL to each well of the plates and incubated for 1 hour. The cells remaining unreacted were washed out with a sufficient amount of Tris-buffered saline and Tween 20 (TBST). Goat anti-mouse IgG-horseradish peroxidase (HRP) was added to the plates and incubated for 1 hour at room temperature. The plates were washed with a sufficient amount of TBST, followed by reacting the peroxidase with a substrate (OPD). Absorbance at 450 nm was measured on an ELISA reader.

[2] = target: T2, EGFR-Fc (#344-ER, R&D Systems) (UniProt P00533 25-645); assay: SPR (Biacore T100), MEH3-01S captured by human Fab binder on CM5 chip, EGFR-Fc injected
T2 construct: Bought reagent; not shown: Fc part of the bought fusion; not described
Description: (§1) The affinity of the anti-c-Met/anti-EGFR/anti-HER3 multispecific antibody prepared in Example 2 to EGFR and HER3 was measured. A human Fab binder (GE Healthcare) was immobilized at the surface of a CM5 chip (#BR-1005-30, GE) according to the manufacturer's specifications. About 90 to 120 RU of the MEH3-01S was captured, and the EGFR-Fc(#344-ER, R&D Systems) or HER3-Fc(#344-ER, R&D Systems) was injected at various concentrations into the captured antibody. 10 mM Glycine-HCl (pH 1.5) solution was injected thereto to regenerate the surface.
(§2) To examine affinity of the antibody, the data obtained from this experiment was fitted using BIAevaluation software (GE Healthcare, Biacore T100 evaluation software).

[3] = target: T3, HER3-Fc (#344-ER, R&D Systems) (UniProt P21860 20-643); assay: SPR (Biacore T100), MEH3-01S captured by human Fab binder on CM5 chip, HER3-Fc injected
T3 construct: Bought reagent; not shown: Fc part of the bought fusion; not described
T3 sequence (P21860 20-643 limits assumed): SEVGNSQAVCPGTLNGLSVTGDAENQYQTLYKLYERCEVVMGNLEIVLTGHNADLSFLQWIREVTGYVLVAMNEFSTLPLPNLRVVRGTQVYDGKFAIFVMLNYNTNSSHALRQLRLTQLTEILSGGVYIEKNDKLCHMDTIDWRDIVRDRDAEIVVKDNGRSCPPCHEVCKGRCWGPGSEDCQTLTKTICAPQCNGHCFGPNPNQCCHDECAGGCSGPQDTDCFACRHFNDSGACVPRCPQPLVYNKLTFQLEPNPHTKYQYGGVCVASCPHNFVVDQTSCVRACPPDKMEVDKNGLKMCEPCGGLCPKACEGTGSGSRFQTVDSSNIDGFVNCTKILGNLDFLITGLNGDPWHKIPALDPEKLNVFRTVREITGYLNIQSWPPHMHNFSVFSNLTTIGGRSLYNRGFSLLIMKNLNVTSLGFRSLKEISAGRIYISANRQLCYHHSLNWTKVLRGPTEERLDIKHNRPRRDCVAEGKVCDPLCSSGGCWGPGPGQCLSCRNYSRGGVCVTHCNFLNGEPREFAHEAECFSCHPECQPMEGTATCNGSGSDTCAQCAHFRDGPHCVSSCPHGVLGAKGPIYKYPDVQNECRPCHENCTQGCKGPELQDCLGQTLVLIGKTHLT
Description: as §1, §2

T1 sequence (P08581 25-932 limits assumed): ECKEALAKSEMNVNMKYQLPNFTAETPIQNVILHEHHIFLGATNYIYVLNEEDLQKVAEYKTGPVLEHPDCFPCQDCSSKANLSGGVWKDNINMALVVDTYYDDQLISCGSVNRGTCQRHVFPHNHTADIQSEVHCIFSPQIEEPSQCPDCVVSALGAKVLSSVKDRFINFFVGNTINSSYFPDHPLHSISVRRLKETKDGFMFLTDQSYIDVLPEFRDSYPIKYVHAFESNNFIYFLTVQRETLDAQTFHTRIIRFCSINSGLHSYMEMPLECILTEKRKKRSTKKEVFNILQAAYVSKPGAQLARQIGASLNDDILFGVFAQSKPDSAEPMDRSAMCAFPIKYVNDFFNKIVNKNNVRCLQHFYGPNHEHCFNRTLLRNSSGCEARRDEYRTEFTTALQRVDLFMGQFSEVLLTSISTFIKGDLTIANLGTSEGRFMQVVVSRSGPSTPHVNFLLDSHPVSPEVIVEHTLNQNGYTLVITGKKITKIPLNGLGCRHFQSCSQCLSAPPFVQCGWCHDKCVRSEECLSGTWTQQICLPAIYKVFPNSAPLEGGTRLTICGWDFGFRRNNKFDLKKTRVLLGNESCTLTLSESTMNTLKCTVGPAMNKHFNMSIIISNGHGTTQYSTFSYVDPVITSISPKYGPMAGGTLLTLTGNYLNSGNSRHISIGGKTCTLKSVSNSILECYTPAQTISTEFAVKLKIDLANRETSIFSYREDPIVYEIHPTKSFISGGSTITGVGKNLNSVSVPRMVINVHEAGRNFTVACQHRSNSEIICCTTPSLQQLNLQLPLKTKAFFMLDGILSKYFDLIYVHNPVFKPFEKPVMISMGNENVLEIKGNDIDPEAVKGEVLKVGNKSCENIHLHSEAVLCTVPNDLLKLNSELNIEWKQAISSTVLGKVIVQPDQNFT

| binding result [1] | Kd [2] [nM] | koff [2] [s⁻¹] | kon [2] [M⁻¹ s⁻¹] | Kd [3] [nM] | koff [3] [s⁻¹] | kon [3] [M⁻¹ s⁻¹] | Binder |
| --- | --- | --- | --- | --- | --- | --- | --- |
| binds |  |  |  |  |  |  | AbF46, a mouse antibody to c-Met (antibody, V domains shown, Tested as hybridoma culture supernatant in the selection ELISA; also called monoclonal antibody of hybridoma KCLRF-BP-00220) VH: EVKLVESGGGLVQPGGSLRLSCATSGFTFTDYYMSWVRQPPGKALEWLGFIRNKANGYTTEYSASVKGRFTISRDNSQSILYLQMDTLRAEDSATYYCARDNWFAYWGQGTLVTVSA VL: DILMTQSPSSLTVSAGEKVTMSCKSSQSLLASGNQNNYLAWHQQKPGRSPKMLIIWASTRVSGVPDRFIGSGSGTDFTLTINSVQAEDLAVYYCQQSYSAPLTFGAGTKLELK |
|  | 0.18 | 0.00011 | 1e+06 | < 0.01 | < 1.6e-05 | 3.4e+06 | anti-c-Met/anti-EGFR/anti-HER3 multispecific antibody MEH3-01S (bispecific antibody, human IgG2, kappa, DL11f scFv fused to the C-terminus of the heavy chain (Fc) of the anti-c-Met IgG2 antibody SAIT301) heavy: EVQLVESGGGLVQPGGSLRLSCAASGFTFTDYYMSWVRQAPGKGLEWLGFIRNKANGYTTEYSASVKGRFTISRDNSKNTLYLQMNSLRAEDTAVYYCARDNWFAYWGQGTLVTVSSASTKGPSVFPLAPCSRSTSESTAALGCLVKDYFPEPVTVSWNSGALTSGVHTFPAVLQSSGLYSLSSVVTVPSSNFGTQTYTCNVDHKPSNTKVDKTVERKCCVECPPCPAPPVAGPSVFLFPPKPKDTLMISRTPEVTCVVVDVSHEDPEVQFNWYVDGVEVHNAKTKPREEQFNSTFRVVSVLTVVHQDWLNGKEYKCKVSNKGLPAPIEKTISKTKGQPREPQVYTLPPSREEMTKNQVSLTCLVKGFYPSDIAVEWESNGQPENNYKTTPPMLDSDGSFFLYSKLTVDKSRWQQGNVFSCSVMHEALHNHYTQKSLSLSPGKGGGGSGGGGSGGGGSEVQLVESGGGLVQPGGSLRLSCAASGFTLSGDWIHWVRQAPGKCLEWVGEISAAGGYTDYADSVKGRFTISADTSKNTAYLQMNSLRAEDTAVYYCARESRVSFEAAMDYWGQGTLVTVSSGGGGSGGGGSGGGGSDIQMTQSPSSLSASVGDRVTITCRASQNIATDVAWYQQKPGKAPKLLIYSASFLYSGVPSRFSGSGSGTDFTLTISSLQPEDFATYYCQQSEPEPYTFGCGTKVEIK light: DIQMTQSPSSLSASVGDRVTITCKSSQSLLASGNQNNYLAWYQQKPGKAPKMLIIWASTRVSGVPSRFSGSGSGTDFTLTISSLQPEDFATYYCQQSYSRPYTFGQGTKVEIKRTVAAPSVFIFPPSDEQLKSGTASVVCLLNNFYPREAKVQWKVDNALQSGNSQESVTEQDSKDSTYSLSSTLTLSKADYEKHKVYACEVTHQGLSSPVTKSFNRGEC |
